Source: publication PMC8878202, “Interdisciplinary Study of the Effects of Dipeptidyl-Peptidase III Cancer Mutations on the KEAP1-NRF2 Signaling Pathway” (International Journal of Molecular Sciences, 2022)
Where a chain is given by its changes, count along the chain named. Names may count otherwise.

B1: Dipeptidyl peptidase III, wild type (enzyme, human, UniProt Q9NY33 1-737, looked up)
chain: MADTQYILPNDIGVSSLDCREAFRLLSPTERLYAYHLSRAAWYGGLAVLLQTSPEAPYIYALLSRLFRAQDPDQLRQHALAEGLTEEEYQAFLVYAAGVYSNMGNYKSFGDTKFVPNLPKEKLERVILGSEAAQQHPEEVRGLWQTCGELMFSLEPRLRHLGLGKEGITTYFSGNCTMEDAKLAQDFLDSQNLSAYNTRLFKEVDGEGKPYYEVRLASVLGSEPSLDSEVTSKLKSYEFRGSPFQVTRGDYAPILQKVVEQLEKAKAYAANSHQGQMLAQYIESFTQGSIEAHKRGSRFWIQDKGPIVESYIGFIESYRDPFGSRGEFEGFVAVVNKAMSAKFERLVASAEQLLKELPWPPTFEKDKFLTPDFTSLDVLTFAGSGIPAGINIPNYDDLRQTEGFKNVSLGNVLAVAYATQREKLTFLEEDDKDLYILWKGPSFDVQVGLHELLGHGSGKLFVQDEKGAFNFDQETVINPETGEQIQSWYRSGETWDSKFSTIASSYEECRAESVGLYLCLHPQVLEIFGFEGADAEDVIYVNWLNMVRAGLLALEFYTPEAFNWRQAHMQARFVILRVLLEAGEGLVTITPTTGSDGRPDARVRLDRSKIRSVGKPALERFLRRLQVLKSTGDVAGGRALYEGYATVTDAPPECFLTLRDTVLLRKESRKLIVQPNTRLEGSDVQLLEYEASAAGLIRSFSERFPEDGPELEEILTQLATADARFWKGPSEAPSGQA
notes: Dipeptidyl peptidase III (DPP III, EC 3.4.14.4), human, wild type, cloned into pLATE31; also called DPP III; WT DPP III; source: E. coli BL21-(DE3)-RIL+, purified (Ni-NTA agarose)
B2: DPP III P479S variant (enzyme, human, UniProt Q9NY33 1-737, looked up)
chain: B1 chain with P479S
notes: source: E. coli BL21-(DE3)-RIL+, purified (Ni-NTA agarose)
B3: DPP III G482C variant (enzyme, human, UniProt Q9NY33 1-737, looked up)
chain: B1 chain with G482C
notes: as for B2
B4: DPP III R510W variant (enzyme, human, UniProt Q9NY33 1-737, looked up)
chain: B1 chain with R510W
notes: as for B2
B5: DPP III R638L variant (enzyme, human, UniProt Q9NY33 1-737, looked up)
chain: B1 chain with R638L
notes: as for B2
B6: DPP III E480Q variant (enzyme, human, UniProt Q9NY33 1-737, looked up)
chain: B1 chain with E480Q
notes: as for B2
B7: DPP III E451K variant (enzyme, human, UniProt Q9NY33 1-737, looked up)
chain: B1 chain with E451K
notes: as for B2
B8: DPP III T481M variant (enzyme, human, UniProt Q9NY33 1-737, looked up)
chain: B1 chain with T481M
notes: as for B2
B9: DPP III Q484H variant (enzyme, human, UniProt Q9NY33 1-737, looked up)
chain: B1 chain with Q484H
notes: as for B2
B10: DPP III R638W variant (enzyme, human, UniProt Q9NY33 1-737, looked up)
chain: B1 chain with R638W
notes: as for B2
B11: DPP III R703C variant (enzyme, human, UniProt Q9NY33 1-737, looked up)
chain: B1 chain with R703C
notes: as for B2

What follows are binders tested against T1, Kelch domain of KEAP1 protein (UniProt Q14145 321-609, fluorescently labeled with RED-MALEIMIDE (Cysteine reactive) fluorescent dye) (assay: MST; Kelch domain labeled with RED-MALEIMIDE, 50 nM; DPP III or variant added; binding-induced fluorescence change on Monolith NT.115; 25 °C; 50 mM Tris, 100 mM NaCl, pH 8.2, 0.05% Tween; triplicate). Settings: both partners purified.
T1 construct: Kelch domain of KEAP1 (Kelch-like ECH associated protein 1); plasmid pET15b with Kelch insert, gift of Mark Hannink; also called Kelch-like ECH associated protein 1 (Kelch domain); source: E. coli BL21-(DE3)-RIL+, purified (Ni-NTA agarose)
T1 sequence (Q14145 321-609): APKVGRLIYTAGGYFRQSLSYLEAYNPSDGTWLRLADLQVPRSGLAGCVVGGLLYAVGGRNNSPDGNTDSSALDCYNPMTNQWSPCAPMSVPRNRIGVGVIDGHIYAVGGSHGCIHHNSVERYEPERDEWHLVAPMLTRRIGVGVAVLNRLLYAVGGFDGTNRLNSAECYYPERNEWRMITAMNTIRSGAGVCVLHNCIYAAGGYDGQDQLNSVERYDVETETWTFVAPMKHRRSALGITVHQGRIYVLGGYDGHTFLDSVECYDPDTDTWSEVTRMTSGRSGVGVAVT

**Q.** B1 was tested. Which “Kd(WT)/Kd(mut)” value did it give?
**A.** The value was 1.

**Q.** B2 was tested. Which “Kd(WT)/Kd(mut)” value did it give?
**A.** The value was 18.4.

**Q.** For B3, which “Kd(WT)/Kd(mut)” value is on record?
**A.** Its value is 0.8.

**Q.** B4 was tested. Which “Kd(WT)/Kd(mut)” value did it give?
**A.** The value was 0.3.

**Q.** B5 was tested. Which “Kd(WT)/Kd(mut)” value did it give?
**A.** Its value is 2.

**Q.** B6 was tested. Which “Kd(WT)/Kd(mut)” value did it give?
**A.** The value was 0.1.

**Q.** For B7, which “Kd(WT)/Kd(mut)” value is on record?
**A.** Its value is 2.1.

**Q.** How did the “Kd(WT)/Kd(mut)” value turn out when B8 was run?
**A.** The value was 0.1.

**Q.** B9 was tested. Which “Kd(WT)/Kd(mut)” value did it give?
**A.** Its value is 2.1.

**Q.** How did the “Kd(WT)/Kd(mut)” value turn out when B10 was run?
**A.** The value was 2.

**Q.** With B11 as the binder, how does the “Kd(WT)/Kd(mut)” value read?
**A.** The value was 1.7.
